Test results as given in publication PMC6128827.

Biological target: three-helix bundle composed of syntaxin-1A and SNAP-25 (rat) (UniProt P32851)
Assay: magnetic tweezers; single pre-assembled SNARE complex held between a PEG-biotin glass surface (NeutrAvidin) and an anti-digoxigenin magnetic bead by two 510-bp DNA handles; force ramps at 1 pN/s, force jumps and 1.2-kHz tracking at 10-16 pN; PBS pH 7.4 with 2.5 uM free SNAP-25; no Cpx

rat synaptobrevin-2 (2–97, L32C/I97C) (from UniProt P63045 2-97) (domain or fragment)
average unzipping force (without Cpx): 14.4 pN
